Data on three substances can be found in paper PMC8017934.

For assay [1], the target named is human 40S ribosomal subunit with the ybbR tag on RACK1, biotinylated or Cy5-labelled (human) (UniProt P63244).
In assay [2] the target is human 40S ribosomal subunit with the ybbR tag on uS19, Cy3-labelled (human (endogenous in HEK293T)) (UniProt P62841).

Several values for one entry are separate records, joined by “and”; a condition that tells them apart may be missing. Identical values can stand only once.

For orientation: Kd means the constant that tells how readily two partners part at equilibrium. As usually defined, the koff is a measure of how fast the partners let go of each other. In assay [1], “Bat-Hp-CoV NSP1 with an N-terminal ybbR tag, Cy3-labelled (natural protein)” showed an equilibrium dissociation constant (Kd) of less than 1 nM, a fraction of IRES–40S complexes bound at least once by NSP1 (≥∼5 s) of 89% and an off-rate (koff) of less than 0.002 s⁻¹.
As for “SARS-CoV-2 NSP1 with an N-terminal ybbR tag, fluorescently labelled (from UniProt P0DTD1 1-180) (natural protein)”, in assay [2], the fraction of recruited 40S subunits with which NSP1 coassociated is 57% and 60%.
In the case of “SARS-CoV-2 NSP1(KH164-165AA) with an N-terminal ybbR tag, Cy3-labelled (from UniProt P0DTD1 1-180) (natural protein)”, in assay [1], the Kd is more than 350 nM, the fraction of IRES–40S complexes bound at least once by NSP1 (≥∼5 s) came out at 9% and the koff is 0.14 s⁻¹.
